T1: Human B7-H4 protein (Sino Biological, Cat #10738-H08H-100) (human, UniProt Q7Z7D3 25-258)
T1 construct: Bought protein; also called hB7-H4 protein
T1 sequence: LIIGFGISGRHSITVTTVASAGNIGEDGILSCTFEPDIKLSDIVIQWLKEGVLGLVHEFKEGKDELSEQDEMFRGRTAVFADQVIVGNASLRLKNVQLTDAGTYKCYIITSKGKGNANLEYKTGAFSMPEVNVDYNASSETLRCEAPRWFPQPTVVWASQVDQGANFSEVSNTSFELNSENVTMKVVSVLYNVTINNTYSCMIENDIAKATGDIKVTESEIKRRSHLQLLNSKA

T2: mouse B7-H4 on cells (MC38-mH4 and E.G7-OVA-mH4 overexpressing) (mouse, UniProt Q7TSP5 25-257)
T2 construct: whole, on cells; The species of the overexpressed protein is read from the label mH4
T2 sequence (looked up): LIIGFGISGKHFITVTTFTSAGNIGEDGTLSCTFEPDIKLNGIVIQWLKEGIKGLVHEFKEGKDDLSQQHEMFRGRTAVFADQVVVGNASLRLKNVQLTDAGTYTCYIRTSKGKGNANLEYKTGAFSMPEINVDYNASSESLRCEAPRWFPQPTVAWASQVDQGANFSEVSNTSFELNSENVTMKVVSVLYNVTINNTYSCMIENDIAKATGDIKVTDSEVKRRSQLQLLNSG

T3: mouse B7-H4 IgC-like domain protein (from a laboratory of Fujian Medical University) (mouse, UniProt Q7TSP5 153-241, limits assumed)
T3 construct: domain: IgC-like domain
T3 sequence (looked up): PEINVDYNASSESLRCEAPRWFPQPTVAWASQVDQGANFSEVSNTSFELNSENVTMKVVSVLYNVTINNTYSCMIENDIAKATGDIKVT

B1: Npsc-A8 single-chain antibody (scFv, V domains shown)
VH: QVQLQESGGGLMQVGGSLRLSCTASGFVFGDYGMNWVRQAPGKGLEWVSLIDTYGASTFYADSVKGRFTISRDNSKQTVFLQMDGLRADDTAMYFCAKPILMFPAFDLWGPGTMVTVSS
VL: DVVMTQSPSSLSASVGDRVTITCRASQGIRNDLAWYQKKPGKAPKRLIYAASSLQSGVPSRFSGSGYGAEFSLTISSLQPEDFATYFCLHHSQYPWTFGQGTKVDIK
notes: Soluble scFv from a phage display human natural scFv library; also called Npsc-A8 scFv; not shown: The scFv linker between the two variable domains, the domain order, and the tag detected with the anti-HA-tag antibody
B2: Npsc-A8 full-length antibody (antibody, V domains shown)
VH: QVQLQESGGGLMQVGGSLRLSCTASGFVFGDYGMNWVRQAPGKGLEWVSLIDTYGASTFYADSVKGRFTISRDNSKQTVFLQMDGLRADDTAMYFCAKPILMFPAFDLWGPGTMVTVSS
VL: DVVMTQSPSSLSASVGDRVTITCRASQGIRNDLAWYQKKPGKAPKRLIYAASSLQSGVPSRFSGSGYGAEFSLTISSLQPEDFATYFCLHHSQYPWTFGQGTKVDIKR
notes: also called Npsc-A8 antibody

Legend:
[1] = target: T1, Human B7-H4 protein (Sino Biological, …); assay: ELISA, human B7-H4 protein coated at 2 µg/mL, scFv titrated from 20 to 0.05 µg/mL
Description: 4.2 Measurement of Affinity of the Npsc-A8 scFv [0142] (1) ELISA plate was placed in a clean bench, and activated under UV irradiation for more than 30 mins. Human B7-H4 protein (Sinobiological, a catalog number: 10738-HO8H-100) was coated onto wells of the ELISA plate overnight at 4° C. at 2 μg/mL. The Npsc-A8 single-chain antibody was diluted to 20 μg/mL, 10 μg/mL, 7.5 μg/mL, 5 μg/mL, 2.5 μg/mL, 1 μg/mL, 0.5 μg/mL, 0.25 μg/mL, 0.1 μg/mL, and 0.05 μg/mL, which were respectively added to wells in 100 μL per well. [0143] (2) The remaining steps were conducted according to steps (7) to (14) in Example 3. [0144] (3) The OD450 nm value was measured. A standard curve was plotted, and the EC₅₀ value was obtained.

[2] = target: T2, mouse B7-H4 on cells (MC38-mH4 and …); assay: flow cytometry on MC38-mH4 cells
Description: (1) Resuspension of cells: After trypsin digestion, cells were centrifuged, the supernatant was discarded, and the cells were resuspended in PBS containing 1% (v/v) FBS and counted to adjust the concentration to 2×10⁶ cells/mL. [0126] (2) Setting controls: For a blank control, an isotype control, and samples to be tested, 100 μL of the resuspended cells in step (1) was added to each tube, so that each tube contains 2×10⁵ cells. [0127] […] A negative control tube was added with 50 μL of negative single-chain antibody, which was the monoclonal single-chain antibody that was negative in ELISA in Example 3. Tubes to be tested were respectively added with 50 μL of antibody candidates (i.e., Npsc-A8, Npsc-E7, Npsc-G10). The mixture in tubes was fully mixed, and incubated at 4° C. for 30 mins. During the incubation, the tubes were shaken every 10 mins to allow the cells to be fully reacted with the antibodies. [0128] (4) Washing of cells: An appropriate amount of PBS containing 1% (v/v) FBS was added to each tube. The tubes were centrifuged at 2000 rpm for 3 mins, and the supernatant was discarded. [0129] (5) Resuspension of cells: The cells in each tube were resuspended in 100 μL of PBS containing 1% FBS. [0130] […]

[3] = target: T3, mouse B7-H4 IgC-like domain protein …; assay: ELISA, protein coated at 2 µg/mL
Description: (1) A 96-well ELISA plate was placed in a clean bench, and activated under UV irradiation for more than 30 mins. The human B7-H4 protein (Sinobiological, a catalog number: 10738-HO8H-100), mouse B7-H4 protein (from a laboratory of Fujian Medical University), mouse B7-H4 IgV-like domain protein (from a laboratory of Fujian Medical University), and mouse B7-H4 IgC-like domain protein (from a laboratory of Fujian Medical University) were respectively coated onto wells of the 96-well ELISA plate at a concentration of 2 μg/mL, and incubated at 4° C. overnight. The Npsc-A8 full-length antibody protein obtained in Example 5 was diluted to 10 μg/mL with PBS buffer, and added to wells in 100 μL per well. [0165] (2) The remaining steps were conducted according to steps (6) to (13) in Example 3. 6H3 and 8H4 were used as control antibodies. 6H3 is a mouse anti-human B7-H4 IgC domain antibody, referring to patent application publication number CN 104955475 A. 8H4 is a hamster anti-human B7-H4 IgV domain antibody, referring to DOI: 10.1016/s1074-7613 (03) 00152-3. [0166] (3) OD450 nm value was measured.

[4] = target: T2, mouse B7-H4 on cells (MC38-mH4 and …); assay: flow cytometry on MC38-mH4 and E.G7-OVA-mH4 cells; the filing adds that at the same concentration it binds human tumor cells at a higher affinity than mouse tumor cells
Description: A negative control tube was added with 50 μL of negative single-chain antibody, which was the monoclonal single-chain antibody that was negative in ELISA in Example 3. Tubes to be tested were respectively added with 50 μL of antibody candidates (i.e., Npsc-A8, Npsc-E7, Npsc-G10). The mixture in tubes was fully mixed, and incubated at 4° C. for 30 mins. During the incubation, the tubes were shaken every 10 mins to allow the cells to be fully reacted with the antibodies. [0128] (4) Washing of cells: An appropriate amount of PBS containing 1% (v/v) FBS was added to each tube. The tubes were centrifuged at 2000 rpm for 3 mins, and the supernatant was discarded. [0129] (5) Resuspension of cells: The cells in each tube were resuspended in 100 μL of PBS containing 1% FBS. [0130] (6) Incubation with secondary antibody: An appropriate amount of fluorescently labeled secondary antibody was added to the isotype control tube and the test tubes, mixed thoroughly, and incubated at 4° C. in the dark for 30 mins. During the incubation, the tubes were shaken every 10 mins. [0131] (7) Washing of cells: 2 mL PBS was added to each tube, the tubes were centrifuged at 2000 rpm for 3 mins, and the supernatant was discarded. This process was conducted twice. [0132] (8) On-machine testing: Cells in each tube were resuspended in 200 μL PBS. […]

Binder | EC50 [1] | binding result [2] | binding result [3] | binding result [4]
B1 | 2.02 µg/mL | binds |  | 
B2 |  |  | no binding (tested: 10 µg/mL) | binds
